Consider 2 molecules from patent US11542537B2, “High-purity steviol glycosides” (PureCircle Sdn Bhd, priority 2012, dated 2023).

What all share (format): biochemical
Data set [1] can be described thus: UGT76G1 lysate activity test, Stevioside to Rebaudioside A (HPLC). As to conditions: in-vivo produced UGT76G1 thawed lysate, 0.5 mM Stevioside, 30° C. As to the method: The total volume of the reaction was 5.0 mL with the following composition: 50 mM sodium phosphate buffer pH 7.2, 3 mM MgCl2, 2.5 mM UDP-glucose, 0.5 mM Stevioside and 500 μL of UGT76G1 thawed lysate. The reactions were run at 30° C. on an orbitary shaker at 135 rpm. For each sample, 460 μL of the reaction mixture was quenched with 40 μL of 2N H2SO4 and 420 μL of methanol/water (6/4). The samples were immediately centrifuged and kept at 10° C. before analysis by HPLC (CAD).
(§1) Activity tests were performed on a 5 mL scale with 500 μL of thawed lysate for the transformation of Stevioside to Rebaudioside A and Rebaudioside D to Rebaudioside M using 0.5 mM of substrate, 2.5 mM of UDP-Glucose and 3 mM MgCl2 in 50 mM Sodium Phosphate buffer at pH 7.2. Samples were taken and analyzed by HPLC.

A short description of data set [2]: UGT76G1 activity test, Rebaudioside D to Rebaudioside M (HPLC). The following applies: in-vitro produced UGT76G1, 0.5 mM Rebaudioside D, after 120 h. The protocol:
The total volume of the reaction was 2 mL with the following composition: 50 mM sodium phosphate buffer pH 7.2, 3 mM MgCl2, 3.8 mM UDP-glucose, 0.5 mM Rebaudioside D and 180 μL of in-vitro produced UGT76G1. The reactions were run at 30° C. on an orbitary shaker at 135 rpm. For each sample, 400 μL of reaction mixture was quenched with 40 μL of 2N H2SO4 and 360 μL of 60% MeOH. After centrifugation, the supernatant was analyzed by HPLC (CAD).
as §1
5 mL of the lysate of Example 12 was used to transform Rebaudioside D to Rebaudioside M on a 50 mL scale. The reaction medium consisted of 50 mM Sodium Phosphate buffer pH 7.2, 3 mM of MgCl2, 2.5 mM of UDP-Glucose and 0.5 mM of Rebaudioside D. After allowing the reaction to be shaken at 30° C. for 90 h. 50 mL of ethanol was added and the resulting mixture was allowed to stir at −20° C. for 1 h. After centrifugation at 5000 g for 10 min. the supernatant was purified via ultrafiltration (Vivaflow MWCO 30000). […]

Data set [3] in a line: Conversion of Rebaudioside E to Rebaudioside D with UGT76G1 lysate. The following applies: 500 μL UGT76G1 thawed lysate, 0.5 mM Rebaudioside E, 30° C., pH 7.5. The protocol: The total volume of the reaction was 5.0 mL with the following composition: 100 mM potassium phosphate buffer pH 7.5, 3 mM MgCl2, 2.5 mM UDP-glucose, 0.5 mM Rebaudioside E and 500 μL of UGT76G1 thawed lysate (UGT76G1 gene was cloned in pET30a+ vector and expressed in E. coli BL21 (DE3)). The reactions were run at 30° C. on an orbitary shaker at 135 rpm. For sampling 300 μL of the reaction mixture was quenched with 30 μL of 2N H2SO4 and 270 μL of methanol/water (6/4). The samples were immediately centrifuged and kept at 10° C. before analysis by HPLC (CAD detection).

Data set [4] is described as follows: Directed evolution of UGT76G1 round 1, variant lysates, Rebaudioside D to Rebaudioside M conversion and initial rate. The protocol:
Lysis was performed by addition of Bugbuster® Master mix (Novagen®) to the thawed cells and the lysate was recovered by centrifugation. Activity tests were performed with 100 μL of fresh lysate that was added to a solution of Rebaudioside D (final concentration 0.5 mM), MgCl2 (final concentration 3 mM) and UDP-Glucose (final concentration 2.5 mM) in 50 mM phosphate buffer pH 7.2.
The reaction was allowed to run at 30° C. and samples were taken after 2, 4, 7 and 24 h. to determine conversion and initial rate by HPLC (CAD detection) using the analytical method that was described above for the transformation of Rebaudioside D to Rebaudioside M. The results are depicted in the following table.

B1: UGT76G1: UDP-glucosyltransferase of Stevia rebaudiana, Genbank AAR06912.1, produced in E. coli or in vitro (protein, UniProt Q6VAB4 1-458, looked up)
UDP-glycosyltransferase 76G1: MENKTETTVRRRRRIILFPVPFQGHINPILQLANVLYSKGFSITIFHTNFNKPKTSNYPHFTFRFILDNDPQDERISNLPTHGPLAGMRIPIINEHGADELRRELELLMLASEEDEEVSCLITDALWYFAQSVADSLNLRRLVLMTSSLFNFHAHVSLPQFDELGYLDPDDKTRLEEQASGFPMLKVKDIKSAYSNWQILKEILGKMIKQTKASSGVIWNSFKELEESELETVIREIPAPSFLIPLPKHLTASSSSLLDHDRTVFQWLDQQPPSSVLYVSFGSTSEVDEKDFLEIARGLVDSKQSFLWVVRPGFVKGSTWVEPLPDGFLGERGRIVKWVPQQEVLAHGAIGAFWTHSGWNSTLESVCEGVPMIFSDFGLDQPLNARYMSDVLKVGVYLENGWERGEIANAIRRVMVDEEGEYIRQNARVLKQKADVSLMKGGSSYESLESLVSYISSL
In the case of B1, the “conversion of stevioside to rebaudioside A (HPLC)” value in data set [1] is recorded as “almost complete conversion”. The “conversion of rebaudioside D to rebaudioside M (HPLC)” value in data set [2] amounted to 80%. Moreover, the “conversion of Rebaudioside E to Rebaudioside D (reaction profile)” value in data set [3] is “complete conversion”.

B2: UGT76G1var94: UGT76G1 variant containing mutations Q266E_P272A_R334K_G348P_L379G (protein, UniProt Q6VAB4 1-458, looked up, variant Q266E P272A R334K G348P L379G)
UDP-glycosyltransferase 76G1: MENKTETTVRRRRRIILFPVPFQGHINPILQLANVLYSKGFSITIFHTNFNKPKTSNYPHFTFRFILDNDPQDERISNLPTHGPLAGMRIPIINEHGADELRRELELLMLASEEDEEVSCLITDALWYFAQSVADSLNLRRLVLMTSSLFNFHAHVSLPQFDELGYLDPDDKTRLEEQASGFPMLKVKDIKSAYSNWQILKEILGKMIKQTKASSGVIWNSFKELEESELETVIREIPAPSFLIPLPKHLTASSSSLLDHDRTVFEWLDQQAPSSVLYVSFGSTSEVDEKDFLEIARGLVDSKQSFLWVVRPGFVKGSTWVEPLPDGFLGERGKIVKWVPQQEVLAHPAIGAFWTHSGWNSTLESVCEGVPMIFSDFGGDQPLNARYMSDVLKVGVYLENGWERGEIANAIRRVMVDEEGEYIRQNARVLKQKADVSLMKGGSSYESLESLVSYISSL
B2: the “activity ranking in first round of directed evolution, Rebaudioside D to Rebaudioside M” value in data set [4] is on record as “most active clone”.
